The target of test [1] is PDL1 coated on ELISA plates (UniProt Q9NZQ7 19-238, limits assumed). Put plainly: receptor blocking ELISA, biotinylated Fc-PD1 binding to PDL1-coated plates, streptavidin-HRP. From the text:
(§1) In both cases, binding was detected by using streptavidin linked horse radish peroxidase.
A general note: In an ELISA, binding on a coated surface is turned into a signal by an enzyme label.

The next test has as its target T1, biotinylated Fc-PDL1 (UniProt Q9NZQ7 19-238, limits assumed, biotinylated (site not stated)).
T1 construct: The order of the parts follows the printed name; not shown: Fc portion
Put plainly: receptor blocking ELISA, biotinylated Fc-PDL1 binding to PD1-coated plates, streptavidin-HRP.
From the text: as §1

The target of test [2] is T2, human PDL1 transgenically expressed on DLD1 cells (human, UniProt Q9NZQ7 19-290).
T2 construct: whole, on cells; also called cell surface PDL1; PDLL
Put plainly: FACS on DLD1 cells expressing human PDL1, fluorescent anti-human-IgG detection; mean, SD 297. The method, then:
To test the ability of the proteins to bind cell surface PDL1, we used DLD1 cells expressing transgenically expressed human PDLL. […] Briefly, 10⁵ cells were incubated with different concentrations of the protein for 30 minutes at 4° C. Cells were washed with PBS and incubated with a fluorescent, anti-human-IgG antibody for 30 minutes at 4° C. Cells were again washed with PBS and binding was detected by FACS.

For orientation: IC50 means the concentration that gives 50% inhibition. Lower therefore signals greater potency in that assay. In general, EC50 refers to the concentration needed to bring the measured effect to its halfway point. Read a low EC50 as a more potent agent.

T1 sequence (Q9NZQ7 19-238 limits assumed): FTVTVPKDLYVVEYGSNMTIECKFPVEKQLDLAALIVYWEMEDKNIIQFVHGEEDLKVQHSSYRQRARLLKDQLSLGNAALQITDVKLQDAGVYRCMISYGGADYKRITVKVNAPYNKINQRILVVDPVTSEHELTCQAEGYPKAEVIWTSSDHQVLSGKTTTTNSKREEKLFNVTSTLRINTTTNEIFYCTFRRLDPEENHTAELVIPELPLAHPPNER
Chain of PDL1 coated on ELISA plates (Q9NZQ7 19-238 limits assumed): as above
T2 sequence (Q9NZQ7 19-290): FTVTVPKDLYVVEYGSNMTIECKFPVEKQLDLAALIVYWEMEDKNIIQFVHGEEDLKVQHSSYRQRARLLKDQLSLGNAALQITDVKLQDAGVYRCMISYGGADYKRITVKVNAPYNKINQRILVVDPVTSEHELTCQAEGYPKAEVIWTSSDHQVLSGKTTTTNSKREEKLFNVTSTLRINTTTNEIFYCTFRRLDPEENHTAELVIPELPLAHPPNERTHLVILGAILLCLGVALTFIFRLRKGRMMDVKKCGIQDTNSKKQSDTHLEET

B1: B2 anti-PDL1 antibody (antibody, human IgG1, lambda, V domains shown)
VH: EVQLVESGGGLVQPGGSLRLSCAASGFTFSDYDMIWVRQAPGKGLEWVAVISYDGSNKYYADSVKGRFTISRDNSKNTLYLQMNSLRAEDTAVYYCAKEFFGAFDIWGQGTMVTVSS
VL: SSELTQDPAVSVALGQTVTITCQGDSLNYYYANWFQLKPGQAPVLVLFGKNNRPSGIPDRFSGSYSGSTASLTITGAQAEDDADYYCNSRDSGGNPWVFGGGTKLTVLG
On to B1, for which the IC50 was found to be 0.8 nM in test [1] and 1.39 nM with biotinylated Fc-PDL1.

B2: E1 anti-PDL1 antibody (antibody, human IgG1, kappa, V domains shown)
VH: QIQLVQSGAEVKMPGASVTISCEASGYNFISYYIHWVRQAPGQGLEWMGFVVPSGGAAGYTQKFQGRLTVTRDTSTSTVYMDLNSLTSDDTAVYYCVREMSGGWFDFWGQGTLVTVSS
VL: DIVMTQSPSSLSASVGDRVTITCRASQGIRNDLGWYQQKPGKAPKLLIYAASTLQSGVPSRFSGSGSGTDFTLTISSLQAEDVAVYYCQQYYSTPLTFGPGTKVDIKR
notes: The full-length entries begin with the secretory leader; The constant region is human IgG1 type; also called parental antibody
Consider B2, for which the midpoint of the response in test [2], the EC50, lay at 1.96 nM. In addition, the IC50 in test [1] worked out at 1.53 nM; with biotinylated Fc-PDL1, 1.26 nM.

B3: E3 anti-PDL1 antibody (antibody, human IgG1, kappa, V domains shown)
VH: QIQLVQSGAEVKKPGSSVKVSCKASGGTFSSYAISWVRQAPGQGLEWMGGIIPIFGTANYAQKFQGRVTITADKSTSTAYMELSSLRSEDTAVYYCAGGGAVADNSYWGQGTLVTVSS
VL: DIRMTQSPSSLSASVGDRVTITCRASQGIRNDLGWYQQKPGKAPKLLIYAASSLQSGVPSRFSGSGSGTDFTLTISSLQPEDFATYYCLQDYNYPRTFGQGTKVEIKR
For the molecule B3, the values for the IC50 (in test [1]; with biotinylated Fc-PDL1) were 16.6 nM and 92.7 nM, respectively.

(Values after US20210388049A1 (1GLOBE BIOMEDICAL, published 2021).)
